Measurements published in article PMC9060518.

Biological target: KCNQ5-ER-c

KCNQ2-ER-n (from UniProt O43526)
block of KCNQ2/5-tandem currents by 10 mM TEA in HEK293T cells: 48 % block
